# Variants at the floor of the assay were thinned out.
# B1: TPR 5TU (parent)
# chain: GGAUCUUCUCGAUCUAACAAAAAAGACAAAUCUGCCACAAAGCUUGAGAGCAUCUUCGGAUGCAGAGGCGGCAGCCUUCGGUGGCGCGAUAGCGCCAACGUUCUCAACUAUGACACGCAAAACGCGUGCUCCGUUGAAUGGAGUUUAUCAUG
# Variants of: B1
# Test: polymerase ribozyme fitness, log enrichment relative to wild type (log ratio); higher = more active; in vitro selection for triplet polymerase activity
# How it was run: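 Mutant libraries of both subunits of a heterodimeric triplet polymerase ribozyme were PCR-built, transcribed, and selected once in triplicate, with frozen incubation at −7 °C and capture of gel-excised extended constructs on streptavidin beads before RT-PCR. Illumina sequencing of input and output libraries was filtered to genotypes with ≥10 input reads and ≥1 read per output. Fitness is the logarithm of genotype enrichment over wild-type enrichment, using inverse-variance-weighted replicate averages. The logarithm is base 2.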
row,Variant,polymerase ribozyme fitness (log ratio)
1,GGAUCUUCUCGAUCUAACAAAAAAGACAAAUCUGCCACAAAGCUUGAGAGCAUCUUCGGAUGCAGAGGCGGCAGCCUUCGGUGGUGCGAUAGCGGCAACGUUCUCAACUAUGACACGCAAAACGCGUGCUCCGUUGAAUGGAGUUUAUCAUG,-2.03
2,GGAUCUUCUCGAUCUAACAAAAAAGACAAAUCUGCCACAAAGCUUGAGAGCAUCUUCGGAUGCAGAGGCGGCAGCCUUCGGUGGUGCGAUAGCGCCAACGUUCUCAACUAUGACACGUAAAACGCGUGCUCCGUUGAAUGGUGUUUAUCAUG,-1.02
3,GGAUCUUCUCGAUCUAACAAAAAAGACAAAUCUGCCACAAAGCUUGAGAGCAUCUUCGGAUGCAGAGGCGGCAGCCUUCGGUGGUGCGAUAGUGCCAACGUUCUCAACUAUGACACGCAAAACGCGUGCUACGUUGAAUGGAGUUUAUCAUG,-2.94
4,GGAUCUUCUCGAUCUAACAAAAAAGACAAAUCUGCCACAAAGCUUGAGAGCAUCUUCGGAUGCAGAGGCGGCAGCCUUCGGUGGUGCGAUAGCGCCAACGUUCUCAACUAUGACACGUAAAACGCGUGCUCCGUUGAAUGGAGUUUAUCAUG,-0.662
5,GGAUCUUCUCGAUCUAACAAAAAAGACAAAUCUGCCACAAAGCUUGAGAGCAUCUUCGGAUGCAGAGGCGGCAGCCUUCGGUGGUGCGAUAGCGCUAACGUUCUCAACUAUGACACGCAAAACGCCUGCUCCGUUGAAUGGAGUUUGUCAUG,≤ -4.2
6,GGAUCUUCUCGAUCUAACAAAAAAGACAAAUCUGCCACAAAGCUUGAGAGCAUCUUCGGAUGCAGAGGCGGCAGCCUUCGGUGGUGCAAUAGCGCCAACGUUCUCAACUAUGACACGCAAAACGCGUGCUCCGUUGAAUGGAGUUUAUCAGG,≤ -4.2
7,GGAUCUUCUCGAUCUAACAAAAAAGACAAAUCUGCCACAAAGCUUGAGAGCAUCUUCGGAUGCAGAGGCGGCAGCCUUCGGUGGUGCGAUAGCACCAACGUUCUCAACUAUGACACGCAACACGCGUGCUCCGUUGAUUGGAGUUUAUCAUG,-4.08
8,GGAUCUUCUCGAUCUAACAAAAAAGACAAAUCUGCCACAAAGCUUGAGAGCAUCUUCGGAUGCAGAGGCGGCAGCCUUCGGUGGUGGGAUAGCGCCAACGUUCUCAACUAUGACACGCAAAACGCGUGCUCCGUUGAAUCGAGUUUAUCAUG,≤ -4.2
9,GGAUCUUCUCGAUCUAACAAAAAAGACAAAUCUGCCACAAAGCUUGAGAGCAUCUUCGGAUGCAGAGGCGGCAGCCUUCGGUGGUGCGAUAGCGCCAACGUUCUCAACUAUGACAGGCAAAACGCGUGCUCCGUUGAAUGGAGUAUAUCAUG,-2.57
10,GGAUCUUCUCGAUCUAACAAAAAAGACAAAUCUGCCACAAAGCUUGAGAGCAUCUUCGGAUGCAGAGGCGGCAGCCUUCGGUGGUGCGAUAGCGCCAACGGUCUCAACUAUGACACGCAAAACGUGUGCUCCGUUGAAUGGAGUUUAUCAUG,-0.351
11,GGAUCUUCUCGAUCUAACAAAAAAGACAAAUCUGCCACAAAGCUUGAGAGCAUCUUCGGAUGCAGAGGCGGCAGCCUUCGGUGGUGCGAUAGCGACAACGUUCUCAACUAUGACACGCAAAACGCGUGCUCCGUUUACUGGAGUUUAUCAUG,≤ -4.2
12,GGAUCUUCUCGAUCUAACAAAAAAGACAAAUCUGCCACAAAGCUUGAGAGCAUCUUCGGAUGCAGAGGCGGCAGCCUUCGGUGGUGCGAUAGCGACAACGUUCUCAACUAUGACACGCAAAACGCGGGCUCCGUUGAAUGGAGUUUAUCAUG,-3.88
13,GGAUCUUCUCGAUCUAACAAAAAAGACAAAUCUGCCACAAAGCUUGAGAGCAUCUUCGGAUGCAGAGGCGGCAGCCUUCGGUGGUGCGAUAGCGCCAACGUUCUCAACUAUGACACGCAAAACGCGUGCUCCGUUGAAUUGAGUUUAUCAUG,-2.51
14,GGAUCUUCUCGAUCUAACAAAAAAGACAAAUCUGCCACAAAGCUUGAGAGCAUCUUCGGAUGCAGAGGCGGCAGCCUUCGGUGGUGCGAUAGCGCCAACGUUGUCAAUUAUGACUCGCAAAACGCGUGCUCCGUUGAAUGGAAUUUAUCAUG,≤ -4.2
15,GGAUCUUCUCGAUCUAACAAAAAAGACAAAUCUGCCACAAAGCUUGAGAGCAUCUUCGGAUGCAGAGGCGGCAGCCUUCGGUGGUGCGAUAGCGCAAACGUUCUCAACUAUGACAGGCAAAACGCGUGCUCCGUUGAAUGGAGUUUAUCAUG,-0.604
16,GGAUCUUCUCGAUCUAACAAAAAAGACAAAUCUGCCACAAAGCUUGAGAGCAUCUUCGGAUGCAGAGGCGGCAGCCUUCGGUGGUGCGAUAGCCCCAACGUUCUCAACUAUGACACGCAAAACGCGUGCUCCGUUGAAUGGAAUUUAUCAUG,-1.78
17,GGAUCUUCUCGAUCUAACAAAAAAGACAAAUCUGCCACAAAGCUUGAGAGCAUCUUCGGAUGCAGAGGCGGCAGCCUUCGGUGGUGCGAUAGCGCCAACGUUCUCAACUAUGACACGCAAAACGCGUGCUCCGUUGAAUGGAGUUUAUCUUA,-0.481
18,GGAUCUUCUCGAUCUAACAAAAAAGACAAAUCUGCCACAAAGCUUGAGAGCAUCUUCGGAUGCAGAGGCGGCAGCCUUCGGUGGUGCGAUAACGCCAACGUUCUCAACUAUGACACGCAAAACGCGUGCUCCGUUGAAUGGAUUUUAUCAUG,-4.16
19,GGAUCUUCUCGAUCUAACAAAAAAGACAAAUCUGCCACAAAGCUUGAGAGCAUCUUCGGAUGCAGAGGCGGCAGCCUUCGGUGGUGCGAUAGCGCCAACGUUCUCAACUAUGACACGCAAAACGCGUGCUCCGUUGAAUGGACUUUAUCAUG,-1.66

# Source: the RNAGym collection of RNA variant scans (doi:10.1073/pnas.2313332121)
